Results taken from patent US20130157932A1, “NGAL AND URINARY TRACT INFECTION” (The Trustees of Columbia University in the City of New York, priority 2010, published 2013).
“Also recorded” adds a separate entry of the source.

Columns and labels:
[1] = tested on: UPEC iron acquisition genes; experiment: Real time PCR of UPEC iron acquisition genes; type: cell-based, Escherichia coli
From the text: To determine whether NGAL-Scn induced bacterial iron starvation, we measured a series of iron acquisition systems (9, 10) that are regulated by iron load via fur, including catecholates enterochelin (ent genes) and salmochelin (iro genes), the hydroxamate aerobactin (iuc genes) (11, 12), their receptors, fepA, iroN (13-15), and iutA, respectively, and additionally the heme scavenging chu receptors (15). […] In sum, uNGAL-Scn is expressed within hours of the onset of infection in vivo, and it is required to limit bacterial growth during the early phases of acute cystitis, most likely by blocking iron acquisition.
Total RNA was isolated with the mirVANA (for eukaryotic cells) or ribopure (for bacteria) RNA extraction kits (Ambion). First strand cDNA was synthesized with Superscript III (Invitrogen). Real-time PCR was performed in a 7500 Fast (Applied Biosystems) with a SYBR green supermix reagent (Fisher) and primers (Table 2) using β-actin (eukaryotic cells) and gapA (for bacteria) as internal controls. Fold amplification of transcripts was measured by the […] method.

[2] = tested on: uropathogenic Escherichia coli strain (CFT073); experiment: In vitro growth of UPEC CFT073 in M9 minimal medium or urine; type: cell-based; settings: for bacterial growth after addition of FeCl3 to NGAL: M9 with NGAL 5 μM plus FeCl3 1 mM; for bacterial growth (optical density): M9 minimal medium; for growth of UPEC (OD600) in urine: human urine pH 5.8 (<pH 6.0), NGAL-Scn 5 μM
From the text: To investigate the relationship between NGAL and UPEC a pyelonephritogenic clinical isolate of uropathogenic Escherichia coli, CFT073, was aliquoted in 96 well plates containing M9 minimal medium supplemented with MgCl2 and glucose (see green hashed line: FIG. 1a), and bacterial growth was monitored by spectrophotometry.
Next, we tested whether NGAL-Scn was sufficient to inhibit urinary bacterial growth. We used UPECs grown to log phase in an iron restricted minimal media (M9), and then subsequently transferred the bacteria into urine or M9. Growth in human urine (<pH 6.0) was similar to growth in acidified M9 (<pH 6.0; FIG. 8C, D).
A single colony of CFT073 was selected from a plate and grown in M9 to log phase. Bacteria were pelleted and resuspended in either M9 or urine and monitored in a 96 well plate on a Tecan 200 Promicroplate reader for up to 72 h.

[3] = tested on: NGAL-Scn expression; experiment: NGAL-Scn expression in mice after i.p. LPS; type: in vivo, mouse
Procedure: To identify elements of the pathway that detect UPEC, we evaluated whether IC could respond to a low dose of LPS (i.p. 1 mg kg^−1), a TLR4 agonist. […] To assess the role of TLR4 further, we inoculated LPS-responsive C3H/HeN (Lps“) and C3H/HeOuJ (Lps”) mice and LPS-defective C3H/HeJ (Lps^d) mice by TU with […] of 5×10^8 CFU ml^−1 (n=15). […] To confirm that kidney expressed TLR4 was critical, we cross-transplanted Lps^d kidneys into nephrectomized Lps^n controls and vice versa. […] Concurrently, TLR4 modulates the burden of urinary infection, by regulating the expression of NGAL-Scn in kidney epithelia.

[4] = tested on: explanted bladders; experiment: NGAL-Scn secretion by bladders explanted from LPS treated mice; type: in vivo, mouse
Procedure: FIGS. 17A-B. C57/BL6 mice challenged with i.p. LPS (1 mg kg^−1) were explanted and media collected at 12 h and 24 hr of culture. FIG. 17A. […] FIG. 17B. NGAL-Scn was detected by Western blot.
Because both the bladder and kidney might contribute to uNGAL-Scn expression, we performed in situ hybridization 1 d post-TU challenge with UPEC (20-30 μl of 5×10^8 CFU ml^−1 i.e. ˜1×10^7 total CFU). We found Ngal-Scn message in collecting duct epithelia (FIG. 8H) (1) and in a thin luminal layer of bladder epithelia (FIG. 8I), but the majority of Ngal-Scn transcripts were found in the kidney (FIG. 8J). Moreover, in a controlled experiment, bladders explanted from mice treated with LPS (1 mg kg^−1) secreted approximately 10 ng per bladder over 12 h (FIG. 17), a small percentage of even a single collection of urine (250 ng ul^−1) from the treated mouse. In sum, while many types of genitourinary epithelia can express uNGAL-Scn in response to cystitis, the kidney was a dominant source of NGAL-Scn, even though kidney bacteria fell at, or below, our limit of detection (10^2 CFU kidney^−1; FIG. 18), and an inoculum less than 50 μl is not likely to generate gross vesico-ureteral reflux (VUR) (24).

[5] = tested on: Ngal expression in the kidney; experiment: Kidney Ngal expression (QPCR) after lipid A/LPS in reciprocal kidney cross-transplants; type: in vivo, mouse; settings: 1 mg/kg, vs untreated cross transplant, n=3
Procedure: To determine whether uNGAL originated from the kidney in a TLR-dependent fashion, kidney transplantation between Tlr-4-mutant CH3/HeJ mice and wild type CH3/HeOuJ mice was performed. To evaluate the contribution of TLR signaling to NGAL expression a cross-transplant model using TLR mutants and systemic administration of LPS as a positive control was used. The CH3/HeJ kidneys from the LPS-insensitive mice were transplanted into CH3/HeOuJ LPS-sensitive (control) mouse bodies, and vice versa. Two weeks after graft maturation, when uNGAL and sCr had stabilized to normal values, a low dose of lipid A (1 mg/kg of body weight) was administered to induce Ngal expression in the kidney (FIG. 4a). […] It is not surprising that there was some Ngal induction in the knockout (KO) kidney because CH3/HeJ are partial KOs and it has also been previously shown that lipid A can signal through the MyD88-dependent pathway without a functioning Tlr4. […]
To identify elements of the pathway that detect UPEC, we evaluated whether IC could respond to a low dose of LPS (i.p. 1 mg kg^−1), a TLR4 agonist. […]
Surgical cross-transplants (1, 44) were monitored for two weeks until serum creatinine stabilized to 0.2 mg dL^−1 and uNGAL-Scn was undetectable prior to ip challenge with LPS (1 mg kg^−1).

[6] = tested on: Primary Ngal-Luciferase2/mCherry medullary cells; experiment: NGAL-Luc2 expression in primary Ngal-Luciferase2/mCherry kidney cells co-cultured with UPEC; type: cell-based, mouse; settings: co-culture with UPEC 3 h; antibiotic added at the time of UPEC; n=3
Procedure: […] Alternatively, primary cells were treated with Lipid A and in some cases with NF-kB inhibitors, MG132 (Cayman Chemical), and Analogues 27, 30, and 3121 and Analogue 3022. The Luciferase substrate (Dual-Glo™ Luciferase Assay System; Promega) was added and luminescence from Luc2 and fluorescence from mC (excitation of 500-550 nm and emission of 575-650 nm) were imaged in a Xenogen IVIS optical imaging system.
Luc2/mC di-fusion reporter mice (8-12 weeks of age) were perfused with PBS and kidney cells were isolated with collagenase (2 mg ml^−1; Sigma), and cultured (1×10^5 well^−1 in 24-well plates; Falcon) in DMEM/F12 medium supplemented with 10% FBS, 1% penicillin-streptomycin, and 46 mg/l L-Valine for 24 h. […] Luciferase substrate (Dual-Glo Luciferase Assay System; Promega) was added and luminescence from Luc2 and fluorescence from mC (excitation 500-550 nm and emission 575-650 nm) were imaged in a Xenogen IVIS optical imaging system.

[7] = tested on: Enterochelin:Fe; settings: pH 4.0; cited from earlier work
[8] = tested on: Enterochelin:Fe; experiment: Enterochelin:Fe capture by NGAL-Scn; type: binding; settings: 3:1 Enterochelin:Fe::Ngal-Scn ratio; washed 5 times on 10 k filter
Procedure: . IPTG (0.2 mM final concentration) was added for 5 h. Bacterial pellets were lysed by sonication in lysis buffer, followed by Triton-X 100 (0.5%) treatment for 30 min on ice. Supernatant was collected after high speed centrifugation and filter sterilized (0.45 μm). NGAL-Scn-GST was purified by binding to Glutathione Sepharose beads followed by cleavage of the GST tag with thrombin. Released protein was fractionated by a Sephacryl S100HR column. Enterochelin:Fe capture by NGAL-Scn was tested (Emc Microcollections gmbh) at a 3:1 Enterochelin:Fe::Ngal-Scn ratio.

[9] = M9 with iron added to match urinary concentration (806 nM)

With `CC(=O)N(O)CCCCCNC(=O)CCC(=O)N(O)CCCCCNC(=O)CCC(=O)N(O)CCCCCN` [DFO, reference compound] the “UPEC iron acquisition gene expression with DFO” value ([1]; M9 media, DFO 50 μM or 5 μM, n=5) was “modulated”.

In the case of `[Cl][Fe]([Cl])[Cl]` [FeCl3, reference compound], the “bacterial growth after addition of FeCl3 to NGAL” value [2] is reported as “rescued” and the “bacterial growth after addition of FeCl3 to NGAL” value ([2]; listed as iron) is reported as “reversed”.

For Lipid A [LPS], the “NGAL-Scn in a single collection of urine from the treated mouse” value ([3]; LPS 1 mg kg^−1) was 250 ng/µL, the “NGAL-Scn expression in intercalated cells / kidney medulla” value ([3]; i.p. LPS 1 mg kg^−1, in situ hybridization) was “induced NGAL-Scn expression; also recorded: detected in alternating cells” and the “NGAL-Scn upregulation in bladder explant media at 12 h” value ([4]; C57/BL6, i.p. LPS 1 mg kg^−1, 12 h of culture, vs control, n=10) was 2 fold. For the same molecule, the “NGAL-Scn upregulation in bladder explant media at 24 h” value ([4]; C57/BL6, i.p. LPS 1 mg kg^−1, 24 h of culture, vs control, n=10) was 5 fold, the “NGAL-Scn secreted by explanted bladder” value ([4]; LPS 1 mg kg^−1, over 12 h) was “approximately 10 ng per bladder” and the “increase in Ngal expression, Tlr-4-mutant (Lps^d) kidney in wild type (Lps^n) host” value [5] was 4.5±2.6 fold. The “increase in Ngal expression, wild type (Lps^n) kidney in Tlr-4-mutant (Lps^d) host” value [5] was 15.6±2.3 fold.

In the case of gentamicin, the “NGAL-Luc2 expression in response to UPEC” value [6] is reported as “blunted”.

B1: Neutrophil Gelatinase Associated Lipocalin (NGAL)-Siderocalin (Scn) (protein, UniProt P11672 21-200, looked up)
Neutrophil …: QDSTQNLIPAPSLLTVPLQPDFRSDQFRGRWYVVGLAGNAVQKKTEGSFTMYSTIYELQENNSYNVTSILVRDQDQGCRYWIRTFVPSSRAGQFTLGNMHRYPQVQSYNVQVATTDYNQFAMVFFRKTSENKQYFKITLYGRTKELSPELKERFTRFAKSLGLKDDNIIFSVPTDQCIDN
modifications: recombinant, E. coli
notes: Recombinant mouse NGAL-Scn protein produced in BL21 E. coli
For B1, the “enterochelin binding at low pH” value [7] is listed as “binds enterochelin even at pH 4.0”, the “Enterochelin:Fe binding by coloration” value [8] is listed as “binding detected” and the EntF activation [1, 9] is listed as 2410 fold. The iucD activation [1, 9] was 16970 fold, the iutA activation [1, 9] was 1.9 fold and the chuS upregulation ([1]; UPEC in M9, NGAL-Scn 5 μM) was 26.9 fold. For the same molecule, the entA upregulation ([1]; UPEC in M9, NGAL-Scn 5 μM) was 396.2 fold, the entF upregulation ([1]; UPEC in M9, NGAL-Scn 5 μM) was 36294.5 fold and the fepA upregulation ([1]; UPEC in M9, NGAL-Scn 5 μM) was 18.0 fold. The iroN upregulation ([1]; UPEC in M9, NGAL-Scn 5 μM) was 207 fold, the iucA upregulation ([1]; UPEC in M9, NGAL-Scn 5 μM) was 12568.5 fold and the iucD upregulation ([1]; UPEC in M9, NGAL-Scn 5 μM) was 19.0 fold. For the same molecule, the iutA upregulation ([1]; UPEC in M9, NGAL-Scn 5 μM) was 13.4 fold, the “entA, entF, and iha gene expression” value ([1]; UPEC in M9, NGAL-Scn 5 μM for 30 min, n=5) was “upregulation” and the “bacterial growth (optical density)” value ([2]; NGAL 5 μM) was “greatly inhibited”. The “bacterial growth (optical density)” value ([2]; NGAL 5 μM, listed as mouse (m) NGAL) was “significantly inhibited”, the “bacterial growth (optical density)” value ([2]; NGAL 5 μM, listed as uNGAL) was “inhibit growth” and the “growth of UPEC in M9 at pH 5.8” value ([2]; M9 pH 5.8 (typical urine pH), NGAL 5 μM, n=3) was “robust inhibition”. The “growth of UPEC in M9 at pH 7” value ([2]; M9 pH 7, NGAL 5 μM, n=3) was “reduced (and variable) growth inhibition”, the “growth of UPEC (OD600) in urine” value ([2]; n=3) was “greatly inhibited” and the “growth of UPEC (OD600) in urine” value ([2]; n=3, listed as uNGAL-Scn) was “inhibited the growth”.
